Experimental data: US12679878B2, “CRF2 receptor agonists and their use in therapy” (SANOFI, priority 2020, dated 2026)
Starred links: 1 amine or outer side, 2 acyl side, 3 side chain; linkers in the order of their positions; H or OH if unused. Non-standard residues stand in square brackets, D forms with d. Groups on a side chain read outwards from the residue. No end group written: not given here. *: point of attachment. C18 diacid = O=C(O)CCCCCCCCCCCCCCCCC(=O)*; γGlu = O=C(O)[C@H](CCC(=O)[*:2])N[*:1]; AEEA = NCCOCCOCC(=O)O; Aib = CC(C)(N)C(=O)O

T1: anti-target CRF1R receptor (UniProt P34998 24-415, limits assumed)
T1 sequence (looked up): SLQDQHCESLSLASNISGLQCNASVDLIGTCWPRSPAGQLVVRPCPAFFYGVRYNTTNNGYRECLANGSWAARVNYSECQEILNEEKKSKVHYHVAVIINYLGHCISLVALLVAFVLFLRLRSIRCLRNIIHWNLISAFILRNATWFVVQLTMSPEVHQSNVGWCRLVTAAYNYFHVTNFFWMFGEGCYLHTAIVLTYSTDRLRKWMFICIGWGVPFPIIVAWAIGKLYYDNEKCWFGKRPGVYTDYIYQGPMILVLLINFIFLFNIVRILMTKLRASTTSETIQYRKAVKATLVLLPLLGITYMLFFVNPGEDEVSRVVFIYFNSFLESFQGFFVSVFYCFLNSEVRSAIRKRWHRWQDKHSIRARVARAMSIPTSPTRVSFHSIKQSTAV

T2: endogenous human CRF2 (NCI-H82 cells) (human, UniProt Q13324 20-411)
T2 sequence (looked up): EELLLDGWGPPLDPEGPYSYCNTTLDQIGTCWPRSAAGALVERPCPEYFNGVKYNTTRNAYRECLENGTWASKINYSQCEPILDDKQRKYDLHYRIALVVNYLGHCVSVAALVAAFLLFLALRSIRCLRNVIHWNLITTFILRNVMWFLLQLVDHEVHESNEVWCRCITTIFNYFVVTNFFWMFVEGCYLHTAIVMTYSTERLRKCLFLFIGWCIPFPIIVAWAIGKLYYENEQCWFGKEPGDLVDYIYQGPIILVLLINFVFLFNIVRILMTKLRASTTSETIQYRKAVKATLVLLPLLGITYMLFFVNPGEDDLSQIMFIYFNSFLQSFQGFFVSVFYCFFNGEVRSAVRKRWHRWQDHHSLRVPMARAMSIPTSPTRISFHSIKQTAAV

B1: peptide of SEQ ID NO: 137 (peptide)
peptide: IVLSLD[dV]PIKLK([AEEA-AEEA-γGlu-C18 diacid])QILLKQERQKKQREQAEKNKQILEQV-NH2
modifications: N-terminus assumed
SMILES: CC[C@H](C)[C@H](N)C(=O)N[C@H](C(=O)N[C@@H](CC(C)C)C(=O)N[C@@H](CO)C(=O)N[C@@H](CC(C)C)C(=O)N[C@@H](CC(=O)O)C(=O)N[C@@H](C(=O)N1CCC[C@H]1C(=O)N[C@H](C(=O)N[C@@H](CCCCN)C(=O)N[C@@H](CC(C)C)C(=O)N[C@@H](CCCCNC(=O)COCCOCCNC(=O)COCCOCCNC(=O)CC[C@H](NC(=O)CCCCCCCCCCCCCCCCC(=O)O)C(=O)O)C(=O)N[C@@H](CCC(N)=O)C(=O)N[C@H](C(=O)N[C@@H](CC(C)C)C(=O)N[C@@H](CC(C)C)C(=O)N[C@@H](CCCCN)C(=O)N[C@@H](CCC(N)=O)C(=O)N[C@@H](CCC(=O)O)C(=O)N[C@@H](CCCNC(=N)N)C(=O)N[C@@H](CCC(N)=O)C(=O)N[C@@H](CCCCN)C(=O)N[C@@H](CCCCN)C(=O)N[C@@H](CCC(N)=O)C(=O)N[C@@H](CCCNC(=N)N)C(=O)N[C@@H](CCC(=O)O)C(=O)N[C@@H](CCC(N)=O)C(=O)N[C@@H](C)C(=O)N[C@@H](CCC(=O)O)C(=O)N[C@@H](CCCCN)C(=O)N[C@@H](CC(N)=O)C(=O)N[C@@H](CCCCN)C(=O)N[C@@H](CCC(N)=O)C(=O)N[C@H](C(=O)N[C@@H](CC(C)C)C(=O)N[C@@H](CCC(=O)O)C(=O)N[C@@H](CCC(N)=O)C(=O)N[C@H](C(N)=O)C(C)C)[C@@H](C)CC)[C@@H](C)CC)[C@@H](C)CC)C(C)C)C(C)C
B2: peptide of SEQ ID NO: 138 (peptide)
peptide: IVLSLD[dV]PIKLK([AEEA-AEEA-γGlu-C18 diacid])QILLKQERQKKQREKAEKNKQILAQV-NH2
modifications: N-terminus assumed
SMILES: CC[C@H](C)[C@H](N)C(=O)N[C@H](C(=O)N[C@@H](CC(C)C)C(=O)N[C@@H](CO)C(=O)N[C@@H](CC(C)C)C(=O)N[C@@H](CC(=O)O)C(=O)N[C@@H](C(=O)N1CCC[C@H]1C(=O)N[C@H](C(=O)N[C@@H](CCCCN)C(=O)N[C@@H](CC(C)C)C(=O)N[C@@H](CCCCNC(=O)COCCOCCNC(=O)COCCOCCNC(=O)CC[C@H](NC(=O)CCCCCCCCCCCCCCCCC(=O)O)C(=O)O)C(=O)N[C@@H](CCC(N)=O)C(=O)N[C@H](C(=O)N[C@@H](CC(C)C)C(=O)N[C@@H](CC(C)C)C(=O)N[C@@H](CCCCN)C(=O)N[C@@H](CCC(N)=O)C(=O)N[C@@H](CCC(=O)O)C(=O)N[C@@H](CCCNC(=N)N)C(=O)N[C@@H](CCC(N)=O)C(=O)N[C@@H](CCCCN)C(=O)N[C@@H](CCCCN)C(=O)N[C@@H](CCC(N)=O)C(=O)N[C@@H](CCCNC(=N)N)C(=O)N[C@@H](CCC(=O)O)C(=O)N[C@@H](CCCCN)C(=O)N[C@@H](C)C(=O)N[C@@H](CCC(=O)O)C(=O)N[C@@H](CCCCN)C(=O)N[C@@H](CC(N)=O)C(=O)N[C@@H](CCCCN)C(=O)N[C@@H](CCC(N)=O)C(=O)N[C@H](C(=O)N[C@@H](CC(C)C)C(=O)N[C@@H](C)C(=O)N[C@@H](CCC(N)=O)C(=O)N[C@H](C(N)=O)C(C)C)[C@@H](C)CC)[C@@H](C)CC)[C@@H](C)CC)C(C)C)C(C)C
B3: peptide of SEQ ID NO: 139 (peptide)
peptide: IVLSLD[dV]PIKLK([AEEA-AEEA-γGlu-C18 diacid])QILLKQERQKKQRQQAEKNKQILAQV-NH2
modifications: N-terminus assumed
SMILES: CC[C@H](C)[C@H](N)C(=O)N[C@H](C(=O)N[C@@H](CC(C)C)C(=O)N[C@@H](CO)C(=O)N[C@@H](CC(C)C)C(=O)N[C@@H](CC(=O)O)C(=O)N[C@@H](C(=O)N1CCC[C@H]1C(=O)N[C@H](C(=O)N[C@@H](CCCCN)C(=O)N[C@@H](CC(C)C)C(=O)N[C@@H](CCCCNC(=O)COCCOCCNC(=O)COCCOCCNC(=O)CC[C@H](NC(=O)CCCCCCCCCCCCCCCCC(=O)O)C(=O)O)C(=O)N[C@@H](CCC(N)=O)C(=O)N[C@H](C(=O)N[C@@H](CC(C)C)C(=O)N[C@@H](CC(C)C)C(=O)N[C@@H](CCCCN)C(=O)N[C@@H](CCC(N)=O)C(=O)N[C@@H](CCC(=O)O)C(=O)N[C@@H](CCCNC(=N)N)C(=O)N[C@@H](CCC(N)=O)C(=O)N[C@@H](CCCCN)C(=O)N[C@@H](CCCCN)C(=O)N[C@@H](CCC(N)=O)C(=O)N[C@@H](CCCNC(=N)N)C(=O)N[C@@H](CCC(N)=O)C(=O)N[C@@H](CCC(N)=O)C(=O)N[C@@H](C)C(=O)N[C@@H](CCC(=O)O)C(=O)N[C@@H](CCCCN)C(=O)N[C@@H](CC(N)=O)C(=O)N[C@@H](CCCCN)C(=O)N[C@@H](CCC(N)=O)C(=O)N[C@H](C(=O)N[C@@H](CC(C)C)C(=O)N[C@@H](C)C(=O)N[C@@H](CCC(N)=O)C(=O)N[C@H](C(N)=O)C(C)C)[C@@H](C)CC)[C@@H](C)CC)[C@@H](C)CC)C(C)C)C(C)C
B4: peptide of SEQ ID NO: 147 (peptide)
peptide: IVLSLD[dV]PIGLK([AEEA-AEEA-γGlu-C18 diacid])QILLKQERQKK[Aib]REQAETNKQILAQV-NH2
modifications: N-terminus assumed
SMILES: CC[C@H](C)[C@H](N)C(=O)N[C@H](C(=O)N[C@@H](CC(C)C)C(=O)N[C@@H](CO)C(=O)N[C@@H](CC(C)C)C(=O)N[C@@H](CC(=O)O)C(=O)N[C@@H](C(=O)N1CCC[C@H]1C(=O)N[C@H](C(=O)NCC(=O)N[C@@H](CC(C)C)C(=O)N[C@@H](CCCCNC(=O)COCCOCCNC(=O)COCCOCCNC(=O)CC[C@H](NC(=O)CCCCCCCCCCCCCCCCC(=O)O)C(=O)O)C(=O)N[C@@H](CCC(N)=O)C(=O)N[C@H](C(=O)N[C@@H](CC(C)C)C(=O)N[C@@H](CC(C)C)C(=O)N[C@@H](CCCCN)C(=O)N[C@@H](CCC(N)=O)C(=O)N[C@@H](CCC(=O)O)C(=O)N[C@@H](CCCNC(=N)N)C(=O)N[C@@H](CCC(N)=O)C(=O)N[C@@H](CCCCN)C(=O)N[C@@H](CCCCN)C(=O)NC(C)(C)C(=O)N[C@@H](CCCNC(=N)N)C(=O)N[C@@H](CCC(=O)O)C(=O)N[C@@H](CCC(N)=O)C(=O)N[C@@H](C)C(=O)N[C@@H](CCC(=O)O)C(=O)N[C@H](C(=O)N[C@@H](CC(N)=O)C(=O)N[C@@H](CCCCN)C(=O)N[C@@H](CCC(N)=O)C(=O)N[C@H](C(=O)N[C@@H](CC(C)C)C(=O)N[C@@H](C)C(=O)N[C@@H](CCC(N)=O)C(=O)N[C@H](C(N)=O)C(C)C)[C@@H](C)CC)[C@@H](C)O)[C@@H](C)CC)[C@@H](C)CC)C(C)C)C(C)C
B5: peptide of SEQ ID NO: 151 (peptide)
peptide: IVLSLD[dV]PIGLK([AEEA-AEEA-γGlu-C18 diacid])QILLKQERQKK[Aib]REQAEKNKRILERV-NH2
modifications: N-terminus assumed
SMILES: CC[C@H](C)[C@H](N)C(=O)N[C@H](C(=O)N[C@@H](CC(C)C)C(=O)N[C@@H](CO)C(=O)N[C@@H](CC(C)C)C(=O)N[C@@H](CC(=O)O)C(=O)N[C@@H](C(=O)N1CCC[C@H]1C(=O)N[C@H](C(=O)NCC(=O)N[C@@H](CC(C)C)C(=O)N[C@@H](CCCCNC(=O)COCCOCCNC(=O)COCCOCCNC(=O)CC[C@H](NC(=O)CCCCCCCCCCCCCCCCC(=O)O)C(=O)O)C(=O)N[C@@H](CCC(N)=O)C(=O)N[C@H](C(=O)N[C@@H](CC(C)C)C(=O)N[C@@H](CC(C)C)C(=O)N[C@@H](CCCCN)C(=O)N[C@@H](CCC(N)=O)C(=O)N[C@@H](CCC(=O)O)C(=O)N[C@@H](CCCNC(=N)N)C(=O)N[C@@H](CCC(N)=O)C(=O)N[C@@H](CCCCN)C(=O)N[C@@H](CCCCN)C(=O)NC(C)(C)C(=O)N[C@@H](CCCNC(=N)N)C(=O)N[C@@H](CCC(=O)O)C(=O)N[C@@H](CCC(N)=O)C(=O)N[C@@H](C)C(=O)N[C@@H](CCC(=O)O)C(=O)N[C@@H](CCCCN)C(=O)N[C@@H](CC(N)=O)C(=O)N[C@@H](CCCCN)C(=O)N[C@@H](CCCNC(=N)N)C(=O)N[C@H](C(=O)N[C@@H](CC(C)C)C(=O)N[C@@H](CCC(=O)O)C(=O)N[C@@H](CCCNC(=N)N)C(=O)N[C@H](C(N)=O)C(C)C)[C@@H](C)CC)[C@@H](C)CC)[C@@H](C)CC)C(C)C)C(C)C

Experiments:
Assay in all cases: cell-based or functional assay
[1] = molecular target: T1, anti-target CRF1R receptor
[2] = molecular target: T2, endogenous human CRF2 (NCI-H82 cells)
[3] = molecular target: rat CRF2R α receptor (rat, UniProt P47866 20-411)

Binder	EC50[nM] 0% HSA (cAMP, CRF1R-overexpression CHO cells) [1] [nM]	Emax (%) (cAMP, CRF1R-overexpression CHO cells) [1]	EC50 [nM] (cAMP, NCI-H82 cells) [2]	EC50 [nM], 0% HSA (cAMP, A7R5 cells) [3] [nM]
B1	> 1000	22.5	120	0.14
B2	> 1000	4.38	8.4	0.26
B3	> 1000	37.6	18	0.1
B4	> 1000	4.54	13	2.53
B5	> 1000	9.07	7.4	0.49
